Holding throughout (assay): EMSA; 1 nM RNA, tRNA competitor; 25 mM Tris-HCl pH 7.5, 50 mM KCl, 1 mM MgCl2, 1 mM DTT, 10% glycerol, 0.1% Triton, 0.5 mg/mL BSA, 1.7 ng/uL yeast tRNA, 1 nM RNA probe; 15 min on ice then 10 min room temperature; gel at 6 C
For orientation: A gel shift assay detects complexes by their altered migration in electrophoresis.

One data set has as its target T1, klTRBD klEst2 171-422 (Kluyveromyces lactis, UniProt Q6CSS0 171-422).
T1 sequence: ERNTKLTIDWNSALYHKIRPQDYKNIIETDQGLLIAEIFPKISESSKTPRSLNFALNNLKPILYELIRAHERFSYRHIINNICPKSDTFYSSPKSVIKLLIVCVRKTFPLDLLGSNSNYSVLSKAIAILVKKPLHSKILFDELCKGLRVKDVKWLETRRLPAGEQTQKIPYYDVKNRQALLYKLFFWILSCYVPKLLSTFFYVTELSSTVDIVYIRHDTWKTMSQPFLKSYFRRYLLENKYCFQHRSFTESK
The note with it: protein: recombinant; tags: N-terminal His-SUMO, TEV-cleaved; label: 5'-32P when probe; three-way junction.

In another data set the target is T2, klTRBD klEst2 171-404 (Kluyveromyces lactis, UniProt Q6CSS0 171-404).
T2 sequence: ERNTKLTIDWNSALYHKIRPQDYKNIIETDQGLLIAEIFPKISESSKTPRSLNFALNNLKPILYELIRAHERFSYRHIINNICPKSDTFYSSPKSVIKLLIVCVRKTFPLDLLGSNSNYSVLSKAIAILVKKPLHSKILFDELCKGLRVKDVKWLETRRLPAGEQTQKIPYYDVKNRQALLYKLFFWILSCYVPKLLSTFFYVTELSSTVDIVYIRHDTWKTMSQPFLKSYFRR
The following applies: protein: recombinant; tags: N-terminal His-SUMO, TEV-cleaved; label: 5'-32P when probe; three-way junction.

Data set [1] concerns the target T3, klEst2 full-length (TERT) (Kluyveromyces lactis, UniProt Q6CSS0 1-861).
T3 sequence: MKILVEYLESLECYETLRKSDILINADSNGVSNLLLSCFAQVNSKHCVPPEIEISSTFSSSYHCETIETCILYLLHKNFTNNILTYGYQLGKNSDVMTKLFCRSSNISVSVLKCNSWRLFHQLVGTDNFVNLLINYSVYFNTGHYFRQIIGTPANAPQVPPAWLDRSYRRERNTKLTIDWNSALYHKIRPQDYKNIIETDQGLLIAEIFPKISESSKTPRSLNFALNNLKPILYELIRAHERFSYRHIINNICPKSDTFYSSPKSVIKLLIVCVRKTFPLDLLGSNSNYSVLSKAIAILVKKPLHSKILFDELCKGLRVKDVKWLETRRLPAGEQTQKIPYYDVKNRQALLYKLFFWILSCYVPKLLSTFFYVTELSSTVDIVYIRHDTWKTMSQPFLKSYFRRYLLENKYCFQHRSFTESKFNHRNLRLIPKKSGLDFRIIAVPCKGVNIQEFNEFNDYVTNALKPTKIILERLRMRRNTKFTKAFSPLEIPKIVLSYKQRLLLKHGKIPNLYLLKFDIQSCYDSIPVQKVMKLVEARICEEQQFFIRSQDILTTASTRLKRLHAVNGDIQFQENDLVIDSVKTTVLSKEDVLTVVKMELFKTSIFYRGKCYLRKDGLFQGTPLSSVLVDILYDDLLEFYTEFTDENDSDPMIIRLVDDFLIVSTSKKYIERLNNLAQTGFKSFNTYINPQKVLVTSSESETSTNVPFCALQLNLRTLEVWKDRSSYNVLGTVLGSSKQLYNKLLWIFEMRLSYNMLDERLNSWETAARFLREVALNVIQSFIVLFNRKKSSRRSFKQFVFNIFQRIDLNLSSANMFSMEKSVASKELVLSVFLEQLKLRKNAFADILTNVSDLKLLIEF
The note with it: protein: recombinant; tags: expressed in E. coli; His-SUMO tag described for the TRBD constructs, tag of full-length not clearly stated; label: 5'-32P when probe; three-way junction.

B1: minTWJ (structured_RNA)
RNA: GGGUUGUCCUAUGGUGGAUCUUGAAAAGACCCUCGGAAGACAGGGCCACAUCGACGAUCAAUAUUUUGCCGUGAGGCUUAUAUGUCACCAUGGCAUGCAGCCC
With B1, the binding result with klTRBD klEst2 171-422 is reported as “no binding”; with klTRBD klEst2 171-404, “no binding”; in data set [1] it was “binds”.

(Values after article PMC9504884, “Functional Interactions of Kluyveromyces lactis Telomerase Reverse Transcriptase with the Three-Way Junction and the Template Domains of Telomerase RNA”.)
